In the nanobody polyreactivity screen of Harvey et al. (2022):

Experiment: yeast display, Sf9 membrane polyspecificity reagent, FACS + sequencing; frameworks hold sequencing errors
Procedure, shortened: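 Sorting gates, low and high (top ~1%), were placed on anti-HA fluorescence to track expression and on streptavidin fluorescence to track reagent binding. A clone's polyreactivity label is taken from the gate it came out of. The reagent was 10% biotinylated, detergent-solubilized Sf9 membrane, applied for 1 hour at 4 °C to galactose-induced yeast display cells.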

Sequence	polyreactivity (PSR sort gate)
QVQLVESGGGLVQAGGSLRLSCAASGRTFRFYTMGWYRQAPGKERELVAAIYWRGSSTYYADSVKGRFTISRDNAKNTVYLQMNSLKPEDTAVYYFAKKSYANEYDYWGQGTQVTVSS	high polyreactivity
QVQLVESGGGLVQAGGSLRLSCAASGLIFTGNTMGWSRQAPGKETELVADITWSDGSTYYADSVKGRFTISRDTENNTVYLQMNSLKPEDTAVYYCAADSVLDRPVLYLWPWYLGDYWGQGTQVTVSS	low polyreactivity
QVQLVESGGGLVQAGGSLRISCAASGFIFYWNAMGWYRQAPGKERELVAGITSGGDTNYADSVKGRFTISRDNAKNTVYLQINSLKPEDTAVYYCAAEGFRGYGYWGQGTQVTVSS	low polyreactivity
QVQLVESGGGLVQAGGSLRLSCAASGRIFVINAMGWYRQAPGKERELVAAISSSGGSTSYADSVKGRFTISRDNAKNTVYFQMNSLKPEDTAVYYCAAKPRVRRVDGYYWGQGTQVTVSS	high polyreactivity
QVQLVESGGGLVQAGGSLRLSCAASGRIFYFNAMGWYRQAPGKERELVAAISGSGGDTYYADTVKGRFTISRDNAKNTVYLQMNCLKPEDTAVYYCAAEVYTWGQGTQVTVSS	low polyreactivity
QVQLVESGGGLVQAGGSLRLSCAASGSTFDYNAMGWYRQAPGKERELVADITGSGASTSYADSVKGRFTISRDNAKNTVYLQMNSLKPEDTAVYYCAATGYSSWTYYTHEYWGQGTQVTVSS	low polyreactivity
QVQLVESGGGLVQAGGRLRLSCAASGRIFYLNAMGWYRQAPGKERELVAAINTSGDSSYYADSVKGRFTISRDNAKNTVYLQMNSLKPEDTAVYYCAAYVIGPDQFIYDYWGQGTQVTVSS	low polyreactivity
QVQLVESGGGLVQAGGSLRLSCAASVSIIACYTMGWYRQATGTERELVAGIRRGGSTNYADSVKGRVTISRDNAKNTVYLQMNSLKPEDTAVYYCNAQRTRSYVLRTFDYWGQGTQVTVSS	high polyreactivity
QVQLVESGGGLVQAGGSLRLSCAASGSNFYDNAMGWYRQAPGKERELLAAITTSGDSTYYADSVKGPFTISRDNAKNTVYLQMNSLKPEDTAVYYCAARPRVRSSYRYYYWGQGTQVTVSS	high polyreactivity
KVQLVESGGGLVQAGGSLRLSCDASGSIFTLNAMGWYRQAPGKARELVAAISSGGGTYYSDSVKGRFTISRDNAKNTVYLQMNTLKPEDSAVYYCAAEHYILDDYLCDYDYWGQGTQVTVSS	high polyreactivity
QVQLVESGGGLVQAGGSLRLSCAASGSIFTTNAMGWYRQAPGKERELVAAISSRGTSTYYADSVKGRFTISRDNAKNTVYLQMNSLKPEDTAVYYCAADYVYASRHFEYWGQGTQVTVSS	high polyreactivity
QDQLVESGGGLVQAGGSLRLSCAASGRTFAYNAMGWYRQAPGKERELVADITSGGSTYYADSVKGRFTIARDNAKNKVYLQMNSLKPEDTAVYYCAAYTQFWYWDYNYWGQGTQVTVSS	high polyreactivity
QVQLVESGGGLVQAGGSLRLSCAASGSTFATYAMGWYRQAPGKERELVAVITRGGRTYYADSVKGRFTISRDNAKNTVYLQMNSLKPEDTAVYYCAAKAYTYYARIGFDYWGQGTQVTVSS	high polyreactivity
QVQLVESGGGLVQAGGSLRLSCAASGRITFSHNTMGWYRQAPGKERELVAAISSGGRTNYADSVKGRFTISRDNAKNTVYLQMNSLKPEDTAVYYCARESHYDFIYDGMDYWGQGTQVTVSS	low polyreactivity
QVQLVESGGGLVQAGGSLRLSCAASGFIFTKYSMGWYRQAPGKERELVAAIRGSGGSTYYADSVKGRFTISRDIAKNSVYLQMNSLKPEDTAVYYCAAERSLGYDYWGQGTQVTVSS	high polyreactivity
QVQLVESGGGLVQAGGSLRLSCAASGRIFDANAMGWYRQAPGKERELVAANSRRGGRTYYADSVKGRFTISRDNAKNTVYLQMNSLKPEDTAVYYCARVPTRAEDVAGWTGMDYWGQGTQVTVSS	high polyreactivity

Sequence	polyreactivity (PSR sort gate)
QVQLVESGGGLVQAGGSLRLSCAASGSTFGGNAMGWYRQAPGKERELVAAISSSGGSTYYADSVKGRFTISRDNAKYTVYLQMNSLKPEDSAVYYCAALYHWTYDYWGLGTQVTVSS	low polyreactivity
QVQLVESAGGLVQAGGSLRLSCAASGRNLYQYAMGWYRQAPGKERELVAAITWNGGSTYYADSVKGRFTISRDNAKNTVYLQINSLKPEDTAVYYCAADSVRPWYAYKAHDYWGQGTQVTVSS	low polyreactivity
QVQLVESGGGLVQAGGSLRLSCAASGFIFAIYAMGWYRQAPGKEMELVAAITSSGGSTYYADSVKGRFTISRDNAKNTVYLQMNSLKPEDTAVYYCNKLSWRKYLGYEYWGQGTHVTVSS	high polyreactivity
QVQLVESGGGLVQAGGSLRLSCAASGFIFLYYAMGWYRQAPGKERELVPYISRGADTKYADSVKGRFTISRDNAKNTVYLQMNSLKPEDTAVYYCATDITTFWFPYPGVELGYWGQGTQVTVAS	low polyreactivity
QVQLVESGGGLVQAGGSLRLSCAASGITFQGNAMGWYRQAPGKEREFVAAISWSGDSTYYADSVKGRFTISRDNAKNTVYLQMNSLKPEDTAVYYCAASRVIPSYPYYKYDYWGQGTQVTVSS	low polyreactivity
QVQLVESGGGLVQAGGSLRLSCAASGSTIYVYAMGWYRQAPGKERELVAAITDSGGSTYADSVKGRFTISRDNAKNTVYLQMNSLKPEDTAVYADSTYNWYYYYWGQGTQVTVSS	low polyreactivity
QVQLVESGGGLVQAGGSLRLSCAASGSTFGYYTMGWYRQAHGKERELVAAISWGCGSTYYADSVKGRFTISRDNAKNTVYLQMNSLIPEDTAVYYCARTPVTSYKDDFYYWGQGTQVTVSS	low polyreactivity
QVQLVESGGGLVQAGGSLRLSCAASGIIFPFYAMGWYRQAPGKERELVAAITSGGDTYYADSVKGRFTISRDNAKNTVYLQMNSLKPEDTAVYYCAAVYRRQYGYWGQGTQVTVSS	high polyreactivity
QVQLVESGGGLVQAGGSLRLSCAASISSINAMGWYRQAPGKERELVAAIRWSGSSTYYADSVKGRFTISRDNAKNTVYLQMNSLKPEDTAVYYCAADTTTGDRGFDYWGQGTQVTVSS	high polyreactivity
QVQLVESGGGLVQAGGSLRLSCAASGSTFTVNAMGWYRQAPGKERELVAVIRKSGTSTYYADSVKGRFTISRDNAKNTVYFQMNSLKPEDTAVYYCAGGGPSTLDDYWGQGTQVTVSS	low polyreactivity
QVQLVESGGGLVQAGGSLRLSCAASGLIFQYYVMGWYRQAPGKERELVAAISARGGGTYYADSVKGRFTISRDNEKITVYLQMNSLKPEDTAVYYCAADFGTIRVYSGDYWGQGTQVTVSS	high polyreactivity
QVQLVESGGGLDQAGGSLRLSCAASGRTFGRYAMGWYRKAPGTERELVAAISWSGGSTYYADSVKGRFTISRDNAKNTVYLQMNSLKPEDTAVYYCAAYEHVYEYDYWGQGTQVTVSS	low polyreactivity
QVQLVESGGGLVQAGGILRLSCAASGRIINIYAMGWYRQAPGKEREMVAAISGSGGRTSYADSVKGRFTFSRDNAKNTVYLQMNILKPEDTAVYYCAADYSYYTSFRYDYWGQGTQVTVSS	low polyreactivity
QVQLVESGGGLVQAGGSLRLSCAASGRIFYPYFMGWYRQAPGKERELVAAISASGGRTYYADSVKGRFTISRDNSKNTVYLQMNSLKPEDTAVYYCNARTVPAGTLYDYWGQGTQVTVSS	low polyreactivity
QVQLVESGGGLVQAGGSLRLSCAASGRTFGGYALGWYRQAPGKERELVATISYSSGSTYYADSVKGRFTISRDNAKNTVYLQMNSLKPEETAVYYCAARIRYFYRYDYWGQGTQVTVTS	high polyreactivity
QVQLVESGGGLVQAGGSLRLSCAASGSIFARYVMGWYRQAPGKERELVAAISRGGRTKYADSVKGRFTISRDNAKNTVYLQMNSLKPEDTAVYYCAASGSQPDDYWGQGTQVTVSS	high polyreactivity
